Consider 4 molecules from patent US20030092157, “Compositions, screening systems and methods for modulating HDL cholesterol and triglyceride levels” (published 2003).

The target in series [1] is T1, LXRα/RXR heterodimer (expressed in Cos-1) (Homo sapiens? / Mus musculus?, UniProt Q13133;P28700 Q13133:1-447,P28700:1-467).
T1 sequence 1: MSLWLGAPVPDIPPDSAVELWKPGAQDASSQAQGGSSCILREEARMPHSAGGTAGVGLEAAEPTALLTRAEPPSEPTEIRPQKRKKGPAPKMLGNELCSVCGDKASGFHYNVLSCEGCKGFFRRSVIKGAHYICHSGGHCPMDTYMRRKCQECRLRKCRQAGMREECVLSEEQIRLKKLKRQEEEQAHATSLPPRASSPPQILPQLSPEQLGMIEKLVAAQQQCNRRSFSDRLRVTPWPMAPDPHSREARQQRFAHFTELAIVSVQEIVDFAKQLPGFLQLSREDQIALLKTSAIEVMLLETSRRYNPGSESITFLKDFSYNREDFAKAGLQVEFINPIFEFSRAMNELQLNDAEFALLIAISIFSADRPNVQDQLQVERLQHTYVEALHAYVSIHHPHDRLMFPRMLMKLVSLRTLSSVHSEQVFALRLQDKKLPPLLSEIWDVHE
T1 sequence 2: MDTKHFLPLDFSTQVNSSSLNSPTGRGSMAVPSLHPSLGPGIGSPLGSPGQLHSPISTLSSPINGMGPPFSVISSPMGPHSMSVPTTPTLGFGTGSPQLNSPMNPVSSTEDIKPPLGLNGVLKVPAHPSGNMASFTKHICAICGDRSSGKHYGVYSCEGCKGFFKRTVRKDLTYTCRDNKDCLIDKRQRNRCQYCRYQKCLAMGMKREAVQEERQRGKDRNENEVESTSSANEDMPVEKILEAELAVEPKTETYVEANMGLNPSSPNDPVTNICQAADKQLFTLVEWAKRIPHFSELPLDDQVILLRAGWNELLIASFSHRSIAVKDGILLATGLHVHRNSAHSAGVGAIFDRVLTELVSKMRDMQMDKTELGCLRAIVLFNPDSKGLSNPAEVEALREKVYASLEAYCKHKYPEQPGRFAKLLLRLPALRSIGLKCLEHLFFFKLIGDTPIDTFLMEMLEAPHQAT
The series can be described thus: cell_activity; 3 copies, luciferase, 1 µM 22(R)-hydroxycholesterol. How it is done:
(§1) FIG. 3 is a bar graph illustrating that the LXREs are functional for LXRα transactivation. Cos-1 cells were cotransfected with multiple copies of the putative LXREs in the reporter plasmid TKpGI3 and expression plasmids for LXRα and RXR. Cells were then treated for 48 h with 1 μM 22(R)-hydroxycholesterol. Luciferase activity was determined and plotted as fold activation relative to vehicle-treated cells.
(§2) Cells were transfected for 3 hours by lipofection using ExGen 500 (Euromedex) in OPTIMEM 1. Medium was then replaced by Dulbecco's Modified Eagle's Medium (DMEM) containing 0.2% fetal calf serum and cells were incubated for 48 hours. Cell extracts were prepared and assayed for luciferase activity as described(15). Twenty-four hours before transfection, HepG2 cells, HUH7 cells, CaCo2 cells and RK13 cells were plated in 24-well plates in DMEM supplemented with 10% fetal calf serum at 5×10⁴ cells/well. Transfection mixes contained 100 ng of tkpGI3 reporter vector or pGI3 containing an 8 kb fragment from ABC1 intron I (pGI3-8 kb) (FIG. 1). Cos-1 cells were plated in 24-well plates in DMEM supplemented with 10% fetal calf serum at 5×10⁴ cells/well. Transfection mixes contained 50 ng of reporter plasmid (tkpGI3) containing multiple copies of the putative LXREs and 25 ng of LXRα and RXR expression plasmids, in the presence of the internal control β-gal expression vector. […]

Series [2] has as its target T1, LXRα/RXR heterodimer (expressed in …). The series can be described thus: cell_activity; 3 copies, luciferase, 1 µM 22(R)-hydroxycholesterol; text's "2-fold and 6-fold, respectively". How it is done: as §1, §2
The target in series [3] is T2, LXRα/RXRα heterodimer (/ Mus musculus, UniProt Q13133;P28700 Q13133:1-447,P28700:1-467).
T2 sequence 1: T1 sequence 1
T2 sequence 2: T1 sequence 2
Kind of series: competition; competed efficiently for CYP7-LXRE probe. The settings on record: tags: pCDNA3-LXRα and pSG5-mRXRα, TNT coupled transcription/translation system (Promega). The method, then:
(§3) For FIG. 2A, HepG2 (liver), HuH7 (hepatoma), CaCo₂ (intestinal) and RK13 (kidney) cell lines were cotransfected with empty pGI3 vector or pGI3 containing an 8 kb fragment upstream of exon 2 of ABC1 intron 1 (pGI3-8 kb). Cells were then incubated for 48 hour. Luciferase activity was determined and plotted as fold activation relative to empty pGI3-transfected cells. The results of gel mobility shift assays in which LXRα and RXR were incubated as indicated with the radiolabeled probe corresponding to CYP7-LXRE are shown in FIG. 2B.
(§4) To investigate whether these DR4 were indeed able to bind LXR-RXR heterodimers, gel retardation assays were performed (FIG. 2B). […] As a control, the unlabeled LXRE previously described in ABC1 exon 1 (+4-LXRE) (10,11) also competed efficiently for binding. The signal was then competed with increasing quantities of each unlabeled putative LXRE.

Series [4] deals with T2, LXRα/RXRα heterodimer. Kind of series: competition; dose-dependent competition, 5-, 25-, 50-fold excess. The settings on record: tags: pCDNA3-LXRα and pSG5-mRXRα, TNT coupled transcription/translation system (Promega). The method, then: as §3, §4

B1: -4696 LXRE (ABC1 intron 1) (dsDNA)
DNA 1: GGATCACCTGAGGTCA
DNA 2: TGACCTCAGGTGATCC
Molecule B1 displayed an activity in series [1] of 2 fold induction.

B2: -7670 LXRE (ABC1 intron 1) (dsDNA)
DNA 1: AGGTTACTGAAGGCCA
DNA 2: TGGCCTTCAGTAACCT
Regarding B2, in series [2], the activity turned out to be 6 fold induction.

B3: +4-LXRE (ABC1 exon 1/promoter) (dsDNA)
DNA 1: AGGTTACTATCGGTCA
DNA 2: TGACCGATAGTAACCT
Regarding B3, the binding result in the series with LXRα/RXRα heterodimer [3] is “binds”.

B4: -7188 LXRE (ABC1 intron 1) (dsDNA)
DNA 1: AGATCACTTGAGGTCA
DNA 2: TGACCTCAAGTGATCT
Turning to B4, the binding result in the series with LXRα/RXRα heterodimer [4] is “binds”.
